Measurements as given in the supplement of paper PMC9170038.

System: MS2 coat protein
Assay: apparent KD of MS2 coat protein; designed switch direction (-1 OFF switch, 1 ON switch): -1; higher = weaker reporter binding
Method in brief: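 Normalised cluster fluorescence was curve-fitted, and each design's median over clusters is its apparent KD. Before this, SNAP-549-labelled MS2 coat protein was titrated from 0.7 or 1.5 nM, doubling to 3 µM, over RNA switches transcribed on Illumina chips by stalled E. coli RNA polymerase. Titrations had no input, 200 uM small-molecule ligand, or an oligonucleotide input, and steps lasted 0.8–1.5 h (lowest) to 10–20 min (highest).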

[1] = input ligand: microRNA oligo, concentration not stated
[2] = Eterna round: R95, input ligand: FMN 200 uM
[3] = Eterna round: R95, input ligand: microRNA oligo, concentration not stated
[4] = Eterna round: R95, input ligand: none

Sequence | apparent KD of MS2 coat protein (input ligand: FMN 200 uM) [nM] | apparent KD of MS2 coat protein (input ligand: none) [nM] | apparent KD of MS2 coat protein [1] [nM] | other results
UUUAGUUCAGGAUAUGUAGAUUUUAACAUGAGGAUCACCCAUGUCGAUCCUGAAUUAACUACAGAAGGGAACAUUU [Mod of Brourd 4 - Jieux - Exclusion 5] (Eterna round: R97, puzzle: Exclusion 5) | 64 | 18.8 | – | –
CCGGUUGGCGCAGGAUAUACAUGAGGAUCACCCAUGUUGAUGAGGAUCACCCAUCAGUUUUUGUUGUAGAAGGGUGGCCCGGCC (Eterna round: R96, puzzle: Exclusion NG 2) | – | – | 16.2 | –
CUAAUACAUCAGGAUAUGAUAGCUUAUAGCAUAUCAGAAGGGAUGACAUGAGGAUCACCCAUGUCAAAGGGUGA [eternacac ex6r4 sub18] (Eterna round: R97, puzzle: Exclusion 6) | 130 | 590 | – | –
AUAAAUCAUGUAGGAUAUGCGUAGCGAAGCUAUGCAGAAGGACAUGAGGAUCACCCAUGUCUUUCCGUCUGCGAACAGACGGAA [Mat - Exclusion NG 1 - Mod of JL - D43] (Eterna round: R96, puzzle: Exclusion NG 1) | 199 | 31.6 | 20 | –
AGUCAAACGGUAGGAUAUCCAUAUCGAGUGACCCUUUCAUAACAUGAGGAUCACCCAUGUCGGUGGGAGAAGGGCCGUAAGGCA [Mat - Exclusion NG 2 - Mod of JL - D70] (Eterna round: R96, puzzle: Exclusion NG 2) | 99.6 | 52.4 | 43.1 | –
CCCUGACAUGAGGAUCACCCAUGUUAGGAUAUAACAUUUGACACUACAGUGUGAAGUGUUAGAAGGGAUAUGGG [-27.9, -26.2 kcal, A 31%] (Eterna round: R97, puzzle: Exclusion 1) | 32.4 | 28.7 | – | –
UUUAAUUUUUUUUUUUUACAAGCUUUUUGCUCGUCUUAUACAUGAGGAUCACCCAUGUGAGUGGGAGGUAAAUUAUC [JMF 77] (puzzle: Sensor v3, turn-off variant 2) | – | – | – | apparent KD of MS2 coat protein [2]: 57.7 nM; apparent KD of MS2 coat protein [3]: 276 nM; apparent KD of MS2 coat protein [4]: 70 nM
AAAUUAGCAAGUAGGUCCGACAUGAGGAUCACCCAUGUAAUCUAAAAUUACGCUGCACGAAAGUGCGCUCGUCUUAG [Sensor-V1 #12] (Eterna round: R97, puzzle: Sensor, turn-off variant 1) | 439 | 385 | – | –
CUUUUGUGAGGAUAUUAGUAGUUAAUAAAUAAAAUUACUACUGAGAAGGCACAUGAGGAUCACCCAUGUUCCUC [salish99_ex4_r3_051] (puzzle: Exclusion 4) | – | – | – | apparent KD of MS2 coat protein [3]: 32.8 nM
AUAUCGUGAGGAUAUCCAAUAUAUGACAUGAGGAUCACCCAUGUUUCCACUCGUACCUCCGGAGAAGGCACAGUUA [Ex5 #72] (Eterna round: R97, puzzle: Exclusion 5) | 23.9 | 24.5 | – | –
GUUAACGUAGGAUAUUAGUACAUGAACAUGAGGAUCACCCAUGUGAGGUAGGUCUUAGAAUAAGAAGGGCGAAGAA [EX5 #28] (Eterna round: R97, puzzle: Exclusion 5) | 124 | 124 | – | –
AUUUUGAAUGUAAGGAUAUCAAUACGAGGGCGUGAUGAGAAGGUACAUGAGGAUCACCCAUGUGGCGAGCUCAC [BmEX4 B.24] (Eterna round: R97, puzzle: Brourd's mod of Exclusion 4) | 33.5 | 23.7 | – | –
UAUUAGCAAGUAAGAUCCCACAUGAGGAUCACCCAUGUGCUCGUCUUAUAAGGUACUGUGACGAUAGUCACGGUACC [Mat - Sensor, turn-off var - Eli Mod - D44] (Eterna round: R97, puzzle: Sensor, turn-off variant 1) | 18.3 | 17.8 | – | –
AGUCAGGCGGUAGGAUAUCCAAAUCGAGUGACCCUUUCAUAACAUGAGGAUCACCCAUGUCGGUGGGAGAAGGGCCGUACGGCG [JL ViennaUCT Atra mod 3] (Eterna round: R96, puzzle: Exclusion NG 2) | 232 | 104 | 88 | –
GAGAAAUUAUAGGAUAUCGAAAGGAUAAUUUAACGAGAAGGAUGAACAUGAGGAUCACCCAUGUGGUAUCAUGG [JL-ex6-3.11] (puzzle: Exclusion 6) | – | – | – | apparent KD of MS2 coat protein [2]: 346 nM; apparent KD of MS2 coat protein [3]: 302 nM; apparent KD of MS2 coat protein [4]: 157 nM
UUAACCAGAGGAUAUGCGAAUAAAUAAAACUUUUUUUUUUAACAUGAGGAUCACCCAUGUAGAAGGCUGCAUUU [Ex2 #30] (Eterna round: R97, puzzle: Exclusion 2) | 25.4 | 25.1 | – | –
CUUAGACAUGAGGAUCACCCAUGUGAGGAUAUGAUGCGAUCGUCGAAAGACGAUAGCAUCAGAAGGCACAUAUG [Fiskers Ex 1 - 6] (puzzle: Exclusion 1) | – | – | – | apparent KD of MS2 coat protein [3]: 132 nM

Sequence | apparent KD of MS2 coat protein (input ligand: FMN 200 uM) [nM] | apparent KD of MS2 coat protein (input ligand: none) [nM] | apparent KD of MS2 coat protein [1] [nM] | other results
AGUGUGGAGACAGGAUAUGAGAAUAGAUAGAAAUCAGAAGGGUCACAUGAGGAUCACCCAUGUAAAGUCUUGAGGAUGAGUGAU [Prohibition 2 - Jieux - Exclusion NG 1] (Eterna round: R96, puzzle: Exclusion NG 1) | 263 | 88.8 | 63.9 | –
GCCUCGUCAGGAUAUUGGGAAGGCUGUUUUAUGAUUGCCCACAAGAAGGGACAUGAGGAUCACCCAUGUACAUU [Eternabot (L1) Solution 51] (Eterna round: R97, puzzle: Exclusion 4) | 63.3 | 32.5 | – | –
CCAGGGCACAAUUAAACGCCCUAACAUGAGGAUCACCCAUGUCAGGAUAUGUAGGCAAAGACCCUACAGAAGGGACAUGUCCUA [Xegeat] (Eterna round: R96, puzzle: Exclusion NG 3) | 217 | 49.9 | 76.1 | –
UAAUUAAAUGUGAGGAUAUGCUGGUCCUUGGAUCAGCAGAAGGCACAUGAGGAUCACCCAUGUAAUUUAUUUAU [Mat - Exclusion 4 - JL Mod - D59] (puzzle: Brourd's mod of Exclusion 4) | – | – | – | apparent KD of MS2 coat protein [3]: 54.3 nM
CUUGUUUAUGUAGGAUAUGCCUGGCGUGCCUUUGCAGAAGGACAUGAGGAUCACCCAUGUAACAUGAGGCUCCACCUUGUCGCC [salish99_ExNG1_r04_117] (Eterna round: R96, puzzle: Exclusion NG 1) | – | – | 111 | –
GUUUUCAGACGGAGAUCCUACAUGAGGAUCACCCAUGUCUCUCUUGUUUUUUGCUCGUCUUUUCCUCCUCUGUUCUC [Elimod 32 - Jieux - Sensor, turn-off variant 1] (Eterna round: R97, puzzle: Sensor, turn-off variant 1) | 447 | 515 | – | –
GGUGCUGGCGCGUCGGUGUUGGUGCAAUAAGCUUGUGAAACAUGAGGAUCACCCAUGUCCUCAUAAGCUCGUCUUGU [salish99_TOv2_r2_087] (puzzle: Sensor v3, turn-off variant 2) | – | – | – | apparent KD of MS2 coat protein [2]: 14.4 nM; apparent KD of MS2 coat protein [3]: 283 nM; apparent KD of MS2 coat protein [4]: 12.8 nM
GUCAUCACACAUGGGAUCAACAUGAGGAUCACCCAUGUUGUCAAGUUUUUUGCUCGUCUUAUAAUACGUUUGAUGAG [Mod-Jxd] (Eterna round: R97, puzzle: Sensor, turn-off variant 1) | 135 | 154 | – | –
ACAUGUUGCGCAGGAUAUGGGACACAUGAGGAUCACCCAUGUGGCUACAUGUCAUACCAAGCGUCUCAGAAGGGUGUUAACAUG [Ex NG2 #36] (Eterna round: R96, puzzle: Exclusion NG 2) | 20.1 | 17.7 | 14 | –
GCAUGCUAUGUCAGGAUAUACCUGUGGAUACAUAGGUAGAAGGGACAUGAGGAUCACCCAUGUCCUAAUCAUGC [Fiskers BMX 4 - 24] (Eterna round: R96, puzzle: Brourd's mod of Exclusion 4) | 11.6 | 13.4 | 10 | –
UUUGUCUGUGUGAGGAUAUACUUUUUUUGGUUUUUGUAGAAGGCACAUGAGGAUCACCCAUGUAUUUUGUUGUG [JR_BME4_Sub016] (puzzle: Brourd's mod of Exclusion 4) | – | – | – | apparent KD of MS2 coat protein [3]: 31.1 nM
AAAAAGCUGAGAGGAUAUGGUGCCGAAACGGUGCUAGAAGGCUUUGCAAAAAAACAUGAGGAUCACCCAUGUUCAUGUAGAGAA [AK ExNG1-1.2] (Eterna round: R96, puzzle: Exclusion NG 1) | 15.8 | 19.6 | 11.8 | –
AACUCACAUGAGGAUCACCCAUGUGAGGAUAUGAUACUAUGUACUUCGGUACAUAGUAUCAGAAGGCAUGUGGA [Ex1-3: 90] (puzzle: Exclusion 1) | – | – | – | apparent KD of MS2 coat protein [3]: 12.9 nM
AGCUGUGGCCGAGGAUAUCUAACUUCAAAUACCGACGUAUAGUCGGACAUGAGGAUCACCCAUGUAGAGAAGGCGGUCUCAGCA [Eli eng2 - 037] (Eterna round: R96, puzzle: Exclusion NG 2) | – | – | 12.3 | –
AUUUUGUCAGGAUAUGAGUAGUAGGACGAAAGUGUUAUUAUUUAGAAGGGACAUGAGGAUCACCCAUGUUUUCC [Bring Us a Shrubbery-04] (puzzle: Exclusion 4) | – | – | – | apparent KD of MS2 coat protein [3]: 12 nM
GAUCACUGAGGAUAUACACAGAUACAAAGUAUCUGAUAGUGACAUGAGGAUCACCCAUGUAGAAGGCAGAGGUC [Omei Ex2 B8] (Eterna round: R97, puzzle: Exclusion 2) | 433 | 72.2 | – | –
GAAAAGGUAGGAUAUACGAAAAAAAAGGGUAGAAAAAAAACACAUGAGGAUCACCCAUGUAGAAGGACCAUAAG [salish99_ex2_r3_091] (puzzle: Exclusion 2) | – | – | – | apparent KD of MS2 coat protein [2]: 63.3 nM; apparent KD of MS2 coat protein [3]: 29.9 nM; apparent KD of MS2 coat protein [4]: 29.2 nM
